{
  "source": "paper PMC11361444",
  "target": "3XFLAG-ZAPL N658A (human) (UniProt Q7Z2W4)",
  "sequence (Q7Z2W4 whole entry N658A)": "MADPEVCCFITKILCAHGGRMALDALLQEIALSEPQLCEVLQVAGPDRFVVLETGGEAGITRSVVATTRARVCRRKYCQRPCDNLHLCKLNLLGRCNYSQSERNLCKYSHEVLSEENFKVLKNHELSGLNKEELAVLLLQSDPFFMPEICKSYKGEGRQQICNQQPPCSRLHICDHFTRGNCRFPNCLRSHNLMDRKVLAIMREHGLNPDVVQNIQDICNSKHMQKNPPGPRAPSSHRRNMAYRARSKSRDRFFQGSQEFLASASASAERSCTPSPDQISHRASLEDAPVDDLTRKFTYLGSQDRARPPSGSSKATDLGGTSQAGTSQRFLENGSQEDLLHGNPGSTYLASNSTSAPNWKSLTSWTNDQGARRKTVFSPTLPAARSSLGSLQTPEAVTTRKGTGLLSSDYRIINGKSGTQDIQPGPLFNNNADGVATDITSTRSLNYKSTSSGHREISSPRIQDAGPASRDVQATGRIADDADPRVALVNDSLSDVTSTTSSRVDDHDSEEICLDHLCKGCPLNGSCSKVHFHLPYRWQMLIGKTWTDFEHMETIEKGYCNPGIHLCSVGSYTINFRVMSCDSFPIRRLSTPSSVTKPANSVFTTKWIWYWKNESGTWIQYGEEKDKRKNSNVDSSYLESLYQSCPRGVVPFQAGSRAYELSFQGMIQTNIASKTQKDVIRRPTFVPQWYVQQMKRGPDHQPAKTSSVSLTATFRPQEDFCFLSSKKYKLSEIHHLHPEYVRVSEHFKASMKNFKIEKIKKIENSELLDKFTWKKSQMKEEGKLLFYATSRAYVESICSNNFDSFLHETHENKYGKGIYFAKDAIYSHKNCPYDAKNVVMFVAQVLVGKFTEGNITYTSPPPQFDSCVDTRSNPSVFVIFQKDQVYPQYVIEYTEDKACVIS",
  "experiment": "co-IP; 3XFLAG-ZAPL and myc-TRIM25 co-transfected into ZAP KO HEK293T cells; lysed in FLAG buffer (100mM Tris HCl pH8.0, 150mM NaCl, 5mM EDTA, 5% glycerol, 0.1% NP-40, 1mM DTT); FLAG beads with lysates at 4°C for 45 min, three washes, immunoblot; densitometry of myc-TRIM25 normalized to FLAG-ZAP pulldown and to WT",
  "data": [
    {"substance": "myc-TRIM25 (tripartite motif containing 25) (from UniProt Q14258 1-630) (natural protein)", "values": [
      {"measurement": "myc-TRIM25 immunoprecipitated by FLAG-ZAP, relative to ZAPL WT (x (fold of ZAPL WT))", "value": 1.09}
    ]}
  ]
}
